# Reference: paper PMC9482650, “Quantitative fragmentomics allow affinity mapping of interactomes” (Nature Communications, 2022)
# T1: MPDZ_12, O75970
# T1 sequence (O75970 1857-1958, limits assumed, looked up): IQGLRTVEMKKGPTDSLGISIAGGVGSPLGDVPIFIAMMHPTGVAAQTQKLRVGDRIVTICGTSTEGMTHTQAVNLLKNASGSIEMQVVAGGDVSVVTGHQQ
# T2: GRIP1_3, Q9Y3R0
# T2 sequence (Q9Y3R0 247-346, limits assumed, looked up): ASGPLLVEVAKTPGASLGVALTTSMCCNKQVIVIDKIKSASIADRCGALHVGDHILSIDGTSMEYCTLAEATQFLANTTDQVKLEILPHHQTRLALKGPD
# T3: GRIP1_2, Q9Y3R0
# T3 sequence (Q9Y3R0 145-248, limits assumed, looked up): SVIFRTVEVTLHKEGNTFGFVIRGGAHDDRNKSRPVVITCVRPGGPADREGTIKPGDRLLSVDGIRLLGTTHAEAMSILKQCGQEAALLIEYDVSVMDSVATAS
# T4: GRIP1_4, Q9Y3R0
# T4 sequence (Q9Y3R0 467-571, limits assumed, looked up): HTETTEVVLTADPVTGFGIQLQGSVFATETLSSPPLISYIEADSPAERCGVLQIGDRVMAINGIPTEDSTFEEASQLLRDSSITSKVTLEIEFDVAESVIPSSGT
# T5: PTPN13_1, Q12923
# T5 sequence (Q12923 1088-1188, limits assumed, looked up): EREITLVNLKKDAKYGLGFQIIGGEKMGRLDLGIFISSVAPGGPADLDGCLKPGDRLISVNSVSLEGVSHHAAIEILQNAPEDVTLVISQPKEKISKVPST
# T6: APBA2_1, Q99767
# T6 sequence (Q99767 563-664, limits assumed, looked up): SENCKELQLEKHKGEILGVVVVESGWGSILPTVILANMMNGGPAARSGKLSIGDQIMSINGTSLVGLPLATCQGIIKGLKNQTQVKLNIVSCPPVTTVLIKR
# T7: LNX2_2, Q8N448
# T7 sequence (Q8N448 334-432, limits assumed, looked up): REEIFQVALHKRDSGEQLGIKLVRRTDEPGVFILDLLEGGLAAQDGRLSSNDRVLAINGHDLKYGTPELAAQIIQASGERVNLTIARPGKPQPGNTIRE
# T8: ARHGEF11, O15085
# T8 sequence (O15085 42-136, limits assumed, looked up): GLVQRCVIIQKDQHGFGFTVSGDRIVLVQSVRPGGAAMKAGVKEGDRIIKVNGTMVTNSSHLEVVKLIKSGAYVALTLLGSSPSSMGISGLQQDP
# T9: SNTA1, Q13424
# T9 sequence (Q13424 82-180, limits assumed, looked up): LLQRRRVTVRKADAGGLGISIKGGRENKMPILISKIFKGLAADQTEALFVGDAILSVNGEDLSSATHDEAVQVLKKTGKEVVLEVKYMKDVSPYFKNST
# T10: PDZD7_3, Q9H5P4
# T10 sequence (Q9H5P4 857-944, limits assumed, looked up): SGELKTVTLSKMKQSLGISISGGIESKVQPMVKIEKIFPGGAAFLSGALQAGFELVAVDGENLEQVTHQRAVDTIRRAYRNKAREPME
# T11: SIPA1L2, Q9P2F8
# T11 sequence (Q9P2F8 945-1036, limits assumed, looked up): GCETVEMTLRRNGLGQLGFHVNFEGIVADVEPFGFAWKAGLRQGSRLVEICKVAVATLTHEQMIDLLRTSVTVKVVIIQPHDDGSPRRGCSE
# What was measured:
# Experiment in all cases: holdup assay
# Parameters in all cases: key: below the threshold = too weak to quantify, mostly under pKd 3.1 to 4
# [1] = target: T1, MPDZ_12, O75970
# [2] = target: T2, GRIP1_3, Q9Y3R0
# [3] = target: T3, GRIP1_2, Q9Y3R0
# [4] = target: GRIP2_7, Q9C0E4
# [5] = target: DLG2_2, Q15700
# [6] = target: Inadl_4, Q8NI35
# [7] = target: T4, GRIP1_4, Q9Y3R0
# [8] = target: T5, PTPN13_1, Q12923
# [9] = target: LDB3, O75112
# [10] = target: PDLIM1, O00151
# [11] = target: ARHGEF12, Q9NZN5-2
# [12] = target: T6, APBA2_1, Q99767
# [13] = target: T7, LNX2_2, Q8N448
# [14] = target: MAST2, Q6P0Q8
# [15] = target: T8, ARHGEF11, O15085
# [16] = target: T9, SNTA1, Q13424
# [17] = target: Inadl_3, Q8NI35
# [18] = target: SCRIB_1, Q14160
# [19] = target: LNX1_2, Q8TBB1
# [20] = target: HTRA2, O43464
# [21] = target: GOPC, Q9HD26
# [22] = target: DLG2_3, Q15700
# [23] = target: T10, PDZD7_3, Q9H5P4
# [24] = target: Inadl_1, Q8NI35
# [25] = target: T11, SIPA1L2, Q9P2F8
# [26] = target: PICK1, Q9NRD5
# [27] = target: GIPC2, Q8TF65
# [28] = plain residues with an end cap or a label only (N-terminal biotin on a linker: ahx)
# [29] = plain residues with an end cap or a label only (N-terminal biotin on a linker: (peg)3)
# [30] = plain residues with an end cap or a label only (N-terminal biotin on a linker: ado-ado)
# Sequence of Inadl_3, Q8NI35 (Q8NI35 359-469): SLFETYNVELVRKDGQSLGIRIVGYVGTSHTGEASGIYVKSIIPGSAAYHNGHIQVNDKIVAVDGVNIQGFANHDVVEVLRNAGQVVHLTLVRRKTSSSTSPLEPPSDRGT
# Sequence of SCRIB_1, Q14160 (Q14160 718-814): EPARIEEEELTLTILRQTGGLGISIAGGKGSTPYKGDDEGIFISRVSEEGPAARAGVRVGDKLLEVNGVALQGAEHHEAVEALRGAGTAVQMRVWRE
# Sequence of GIPC2, Q8TF65 (Q8TF65 112-203): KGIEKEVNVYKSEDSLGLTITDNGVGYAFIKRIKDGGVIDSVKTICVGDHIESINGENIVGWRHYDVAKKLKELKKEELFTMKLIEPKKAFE
# Sequence of MAST2, Q6P0Q8 (Q6P0Q8 1099-1202): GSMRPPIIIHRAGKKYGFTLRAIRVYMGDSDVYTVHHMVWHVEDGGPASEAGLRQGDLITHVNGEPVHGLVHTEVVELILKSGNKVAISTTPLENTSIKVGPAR
# Sequence of ARHGEF12, Q9NZN5-2 (Q9NZN5 other isoform, or with tags, fused parts or gaps): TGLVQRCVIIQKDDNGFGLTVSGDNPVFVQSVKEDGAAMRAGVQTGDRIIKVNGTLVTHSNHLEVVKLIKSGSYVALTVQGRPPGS
# Sequence of LDB3, O75112 (O75112 1-94): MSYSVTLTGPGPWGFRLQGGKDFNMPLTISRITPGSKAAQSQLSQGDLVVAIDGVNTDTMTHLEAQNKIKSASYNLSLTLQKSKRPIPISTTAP
# Sequence of PDLIM1, O00151 (O00151 1-87): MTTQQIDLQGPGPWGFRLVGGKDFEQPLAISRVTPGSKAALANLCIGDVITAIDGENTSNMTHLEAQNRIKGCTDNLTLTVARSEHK
# Sequence of Inadl_1, Q8NI35 (Q8NI35 113-229): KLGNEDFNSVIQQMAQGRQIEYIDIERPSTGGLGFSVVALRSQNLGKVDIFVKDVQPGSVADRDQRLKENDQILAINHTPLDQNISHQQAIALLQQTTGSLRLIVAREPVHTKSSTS
# Sequence of PICK1, Q9NRD5 (Q9NRD5 17-115): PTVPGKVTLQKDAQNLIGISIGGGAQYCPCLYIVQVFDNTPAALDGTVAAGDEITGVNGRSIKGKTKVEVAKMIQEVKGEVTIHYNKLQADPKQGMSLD
# Sequence of GRIP2_7, Q9C0E4 (Q9C0E4 934-1023): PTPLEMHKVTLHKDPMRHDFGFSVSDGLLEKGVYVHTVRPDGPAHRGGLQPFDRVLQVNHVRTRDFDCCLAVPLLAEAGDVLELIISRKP
# Sequence of Inadl_4, Q8NI35 (Q8NI35 547-651): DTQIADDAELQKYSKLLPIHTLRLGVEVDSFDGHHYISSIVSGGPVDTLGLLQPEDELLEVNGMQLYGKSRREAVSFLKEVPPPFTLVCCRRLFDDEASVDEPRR
# Sequence of LNX1_2, Q8TBB1 (Q8TBB1 371-470): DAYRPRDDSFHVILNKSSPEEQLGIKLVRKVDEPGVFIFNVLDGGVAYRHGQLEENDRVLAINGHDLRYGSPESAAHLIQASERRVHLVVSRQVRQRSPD
# Sequence of HTRA2, O43464 (O43464 355-458): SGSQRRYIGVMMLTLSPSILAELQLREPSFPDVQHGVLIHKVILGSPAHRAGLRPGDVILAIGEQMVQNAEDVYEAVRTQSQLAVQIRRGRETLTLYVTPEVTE
binder,measurement,setting,value
"QDEKVKESYV [ABCA1, O95477]",pKd,[1]; [28],below the threshold
same,pKd,[2]; [28],below the threshold
same,pKd,[3]; [28],below the threshold
same,pKd,[4]; [28],3.59
same,pKd,[5]; [28],4.17
same,pKd,[6]; [28],below the threshold
same,pKd,[7]; [28],below the threshold
same,pKd,[8]; [28],below the threshold
same,pKd,[9]; [28],3.53
same,pKd,[10]; [28],below the threshold
same,pKd,[11]; [28],4.27
same,pKd,[12]; [28],below the threshold
same,pKd,[13]; [28],3.64
same,pKd,[14]; [28],4.68
same,pKd,[15]; [28],4.3
same,pKd,[16]; [28],5.9
same,pKd,[17]; [28],3.75
same,pKd,[18]; [28],4.15
same,pKd,[19]; [28],below the threshold
same,pKd,[20]; [28],below the threshold
same,pKd,[21]; [28],4.28
same,pKd,[22]; [28],4.63
same,pKd,[23]; [28],5.35
same,pKd,[24]; [28],below the threshold
same,pKd,[25]; [28],below the threshold
same,pKd,[26]; [28],3.76
same,pKd,[27]; [28],4.26
"QPRTWLQSPV [RTKN, Q9BST9]",pKd,[1]; [28],below the threshold
same,pKd,[2]; [28],below the threshold
same,pKd,[3]; [28],below the threshold
same,pKd,[4]; [28],below the threshold
same,pKd,[5]; [28],4.71
same,pKd,[6]; [28],below the threshold
same,pKd,[7]; [28],below the threshold
same,pKd,[8]; [28],below the threshold
same,pKd,[9]; [28],below the threshold
same,pKd,[10]; [28],below the threshold
same,pKd,[11]; [28],3.99
same,pKd,[12]; [28],below the threshold
same,pKd,[13]; [28],below the threshold
same,pKd,[14]; [28],4.13
same,pKd,[15]; [28],below the threshold
same,pKd,[16]; [28],below the threshold
same,pKd,[17]; [28],below the threshold
same,pKd,[18]; [28],3.69
same,pKd,[19]; [28],below the threshold
same,pKd,[20]; [28],below the threshold
same,pKd,[21]; [28],4.07
same,pKd,[22]; [28],3.62
same,pKd,[23]; [28],below the threshold
same,pKd,[24]; [28],below the threshold
same,pKd,[25]; [28],below the threshold
same,pKd,[26]; [28],below the threshold
same,pKd,[27]; [28],below the threshold
"RYEDTTLVEDTVL [WNV-NS5, Q9Q6P4]",pKd,[1]; [29],below the threshold
same,pKd,[2]; [29],below the threshold
same,pKd,[3]; [29],below the threshold
same,pKd,[4]; [29],below the threshold
same,pKd,[5]; [29],below the threshold
same,pKd,[6]; [29],below the threshold
same,pKd,[7]; [29],below the threshold
same,pKd,[8]; [29],below the threshold
same,pKd,[9]; [29],below the threshold
same,pKd,[10]; [29],below the threshold
same,pKd,[11]; [29],3.92
same,pKd,[12]; [29],below the threshold
same,pKd,[13]; [29],below the threshold
same,pKd,[14]; [29],5.64
same,pKd,[15]; [29],3.99
same,pKd,[16]; [29],4.14
same,pKd,[17]; [29],3.82
same,pKd,[18]; [29],3.95
same,pKd,[19]; [29],below the threshold
same,pKd,[20]; [29],below the threshold
same,pKd,[21]; [29],3.71
same,pKd,[22]; [29],below the threshold
same,pKd,[23]; [29],4.54
same,pKd,[24]; [29],below the threshold
same,pKd,[25]; [29],below the threshold
same,pKd,[26]; [29],below the threshold
same,pKd,[27]; [29],below the threshold
"DPAESMESLV [PTPRG, P23470]",pKd,[1]; [30],below the threshold
same,pKd,[2]; [30],below the threshold
same,pKd,[3]; [30],below the threshold
same,pKd,[4]; [30],below the threshold
same,pKd,[5]; [30],4.68
same,pKd,[6]; [30],below the threshold
same,pKd,[7]; [30],below the threshold
same,pKd,[8]; [30],below the threshold
same,pKd,[9]; [30],below the threshold
same,pKd,[10]; [30],below the threshold
same,pKd,[11]; [30],below the threshold
same,pKd,[12]; [30],below the threshold
same,pKd,[13]; [30],4.3
same,pKd,[14]; [30],4.69
same,pKd,[15]; [30],3.61
same,pKd,[16]; [30],4.46
same,pKd,[17]; [30],4.08
same,pKd,[18]; [30],below the threshold
same,pKd,[19]; [30],below the threshold
same,pKd,[20]; [30],below the threshold
same,pKd,[21]; [30],below the threshold
same,pKd,[22]; [30],below the threshold
same,pKd,[23]; [30],4.54
same,pKd,[24]; [30],below the threshold
same,pKd,[25]; [30],below the threshold
same,pKd,[26]; [30],4.13
same,pKd,[27]; [30],3.95
